Test results: publication PMC8406188 (mBio, 2021)
“And” between values parts separate entries of the source, which are not always exact repeats. Identical values can stand only once.

Assays:
[1] = target: OmpC(K255am) with benzoyl phenylalanine (Bpa) at residue 255 (E. coli) (UniProt P06996); test: SDS-PAGE of unheated and heated samples (heat-sensitive oligomers); OmpC amber mutants synthesized in PURExpress lacking release factor 1 with FluoroTect, tRNATAG-BPA, SurA, Rc LPS and Bam POPC proteoliposomes; 30 min, 30°C; with or without UV
[2] = target: OmpC(K281am) with benzoyl phenylalanine (Bpa) at residue 281 (E. coli) (UniProt P06996); test: as above
[3] = target: the molecule itself; test: SDS-PAGE of unheated and heated samples (heat-sensitive oligomers), with proteinase K; OmpC synthesized in PURExpress with FluoroTect, SurA, smooth LPS from E. coli O55:B5 (0.5 mg/ml) and Bam DLPC proteoliposomes; 30 min, 37°C
[4] = target: the molecule itself; test: SDS-PAGE of unheated samples (oligomers), colloidal blue staining; urea-denatured OmpC folded into 1% DDM-0.4% DDG, 50 mM Tris pH 8.0, 1 mM DTT, 0.1 mM EDTA; 37°C, 24 h
[5] = target: the molecule itself; test: SDS-PAGE of unheated and heated samples (heat-sensitive oligomers), with proteinase K; 0.2 μM urea-denatured OmpC S71C-BODIPY-FL added to SurA, Bam proteoliposomes (text: Bam DLPC; legend: Bam DMPC) and Rc LPS in a complete mixture of PURExpress components; 30 min, 37°C

## OmpC(K255am) with benzoyl phenylalanine (Bpa) at residue 255 (from UniProt P06996 22-367) (natural protein)
[1]
  stoichiometry N: 3

## OmpC(K281am) with benzoyl phenylalanine (Bpa) at residue 281 (from UniProt P06996 22-367) (natural protein)
[2]
  stoichiometry N: 3

B1: E. coli OmpC (wild type), synthesized in vitro without its signal peptide (natural protein, UniProt P06996 22-367, looked up)
chain: AEVYNKDGNKLDLYGKVDGLHYFSDNKDVDGDQTYMRLGFKGETQVTDQLTGYGQWEYQIQGNSAENENNSWTRVAFAGLKFQDVGSFDYGRNYGVVYDVTSWTDVLPEFGGDTYGSDNFMQQRGNGFATYRNTDFFGLVDGLNFAVQYQGKNGNPSGEGFTSGVTNNGRDALRQNGDGVGGSITYDYEGFGIGGAISSSKRTDAQNTAAYIGNGDRAETYTGGLKYDANNIYLAAQYTQTYNATRVGSLGWANKAQNFEAVAQYQFDFGLRPSLAYLQSKGKNLGRGYDDEDILKYVDVGATYYFNKNMSTYVDYKINLLDDNQFTRDAGINTDNIVALGLVYQF
modifications: fluorescent lysine residues (BODIPY-FL at the ε position, from FluoroTect GreenLys) incorporated during synthesis
[3]
  stoichiometry N: 2 and 3

B2: Urea-denatured wild-type OmpC purified from inclusion bodies (natural protein, E. coli, UniProt P06996 22-367, looked up)
chain: AEVYNKDGNKLDLYGKVDGLHYFSDNKDVDGDQTYMRLGFKGETQVTDQLTGYGQWEYQIQGNSAENENNSWTRVAFAGLKFQDVGSFDYGRNYGVVYDVTSWTDVLPEFGGDTYGSDNFMQQRGNGFATYRNTDFFGLVDGLNFAVQYQGKNGNPSGEGFTSGVTNNGRDALRQNGDGVGGSITYDYEGFGIGGAISSSKRTDAQNTAAYIGNGDRAETYTGGLKYDANNIYLAAQYTQTYNATRVGSLGWANKAQNFEAVAQYQFDFGLRPSLAYLQSKGKNLGRGYDDEDILKYVDVGATYYFNKNMSTYVDYKINLLDDNQFTRDAGINTDNIVALGLVYQF
[4]
  stoichiometry N: 3

B3: Urea-denatured OmpC S71C, fluorescently labeled at residue 71 with BODIPY-FL (natural protein, E. coli, UniProt P06996 22-367, looked up)
chain: AEVYNKDGNKLDLYGKVDGLHYFSDNKDVDGDQTYMRLGFKGETQVTDQLTGYGQWEYQIQGNSAENENNCWTRVAFAGLKFQDVGSFDYGRNYGVVYDVTSWTDVLPEFGGDTYGSDNFMQQRGNGFATYRNTDFFGLVDGLNFAVQYQGKNGNPSGEGFTSGVTNNGRDALRQNGDGVGGSITYDYEGFGIGGAISSSKRTDAQNTAAYIGNGDRAETYTGGLKYDANNIYLAAQYTQTYNATRVGSLGWANKAQNFEAVAQYQFDFGLRPSLAYLQSKGKNLGRGYDDEDILKYVDVGATYYFNKNMSTYVDYKINLLDDNQFTRDAGINTDNIVALGLVYQF
modifications: BODIPY-FL maleimide on the cysteine at 71
[5]
  stoichiometry N: 2 and 3
